Measurements as given in article PMC4326527.

Target: UAF1-mRFP (UniProt Q8TAF3)
Experiment: nuclear relocation assay
Details: 293T cells co-transfected with UAF1-mRFP; at least 100 cells per slide; three independent experiments; parent: est. 10; read off a plot

Chain of UniProt Q8TAF3 (Q8TAF3 whole entry): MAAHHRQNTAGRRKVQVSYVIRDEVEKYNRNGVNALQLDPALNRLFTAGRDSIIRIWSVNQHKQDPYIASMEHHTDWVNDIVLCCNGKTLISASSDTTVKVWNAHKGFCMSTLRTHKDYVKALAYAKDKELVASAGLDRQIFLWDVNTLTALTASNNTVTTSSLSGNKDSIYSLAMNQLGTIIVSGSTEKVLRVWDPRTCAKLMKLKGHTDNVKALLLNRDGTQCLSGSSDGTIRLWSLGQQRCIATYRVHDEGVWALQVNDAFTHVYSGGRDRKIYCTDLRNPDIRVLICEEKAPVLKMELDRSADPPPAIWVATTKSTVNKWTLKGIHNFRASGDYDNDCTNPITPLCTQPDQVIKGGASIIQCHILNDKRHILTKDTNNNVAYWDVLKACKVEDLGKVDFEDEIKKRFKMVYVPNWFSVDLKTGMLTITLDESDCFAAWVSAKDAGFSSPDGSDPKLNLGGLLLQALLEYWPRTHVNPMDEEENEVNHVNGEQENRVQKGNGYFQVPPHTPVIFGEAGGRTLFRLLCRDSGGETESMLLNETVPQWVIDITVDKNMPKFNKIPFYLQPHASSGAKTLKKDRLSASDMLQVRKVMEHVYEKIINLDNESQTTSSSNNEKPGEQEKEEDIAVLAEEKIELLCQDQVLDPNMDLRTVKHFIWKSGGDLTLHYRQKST

other: UAF1-mRFP N/C localization (% of cells), nuclear/cytoplasmic (N/C) class: 12 % of cells
Substance: YFP-USP1(del420-520) S313D
